The values that follow are results of earlier work, collected in PMC7149769.

pKd: −log10 of the molar value.

For one data set, the target named is Factor Xa (Homo sapiens) (UniProt P00742).
Another data set deals with Factor X (Homo sapiens) (UniProt P00742).

Regarding Factor Va (from UniProt P12259), the pKd in the data set with Factor Xa (Homo sapiens) is 9.00.
Turning to Mac-1 (from UniProt P11215), the pKd in the data set with Factor X (Homo sapiens) is 7.52.
